Measured values: IntAct's records for PubMed 20118266

B1: Flagellar biosynthesis protein FlhA (Salmonella typhimurium), P40729 (parent)
chain: MANLVAMLRLPSNLKSTQWQILAGPILILLILSMMVLPLPAFILDLLFTFNIALSIMVLLVAMFTQRTLDFAAFPTILLFTTLLRLALNVASTRIILMEGHTGAAAAGKVVEAFGHFLVGGNFAIGIVVFIILVIINFMVITKGAGRIAEVGARFVLDGMPGKQMAIDADLNAGLIGEDEAKKRRSEVTQEADFYGSMDGASKFVRGDAIAGILIMVINVVGGLLVGVLQHGMSIGSAAESYTLLTIGDGLVAQIPALVISTAAGVIVTRVSTDQDVGEQMVGQLFSNPRVMLLAAAVLGLLGMVPGMPNLVFLLFTAALLGLAWWLRGREEKAPEEPQPVKMPENNSVVEATWNDVQLEDSLGMEVGYRLIPMVDFQQDGELLGRIRSIRKKFAQDMGFLPPVVHIRDNMDLQPARYRILMKGVEIGSGDAYPGRWLAINPGTAAGTLPGEKTVDPAFGLDAIWIESALKEQAQIQGFTVVEASTVVATHLNHLIGQFSAELFGRQEAQQLLDRVSQEMPKLTEDLVPGVVTLTTLHKVLQNLLAEKVPIRDMRTILETLAEHAPLQSDPHELTAVVRVALGRAITQQWFPGNEEVQVIGLDTALERLLLQALQGGGGLEPGLADRLLAQTQEALSRQEMLGAPPVLLVNHALRPLLSRFLRRSLPQLVVLSNLELSDNRHIRMTATIGGK
B2: Flagellar biosynthesis protein FlhA (Salmonella typhimurium), P40729 (parent)
chain: B1 chain
partner: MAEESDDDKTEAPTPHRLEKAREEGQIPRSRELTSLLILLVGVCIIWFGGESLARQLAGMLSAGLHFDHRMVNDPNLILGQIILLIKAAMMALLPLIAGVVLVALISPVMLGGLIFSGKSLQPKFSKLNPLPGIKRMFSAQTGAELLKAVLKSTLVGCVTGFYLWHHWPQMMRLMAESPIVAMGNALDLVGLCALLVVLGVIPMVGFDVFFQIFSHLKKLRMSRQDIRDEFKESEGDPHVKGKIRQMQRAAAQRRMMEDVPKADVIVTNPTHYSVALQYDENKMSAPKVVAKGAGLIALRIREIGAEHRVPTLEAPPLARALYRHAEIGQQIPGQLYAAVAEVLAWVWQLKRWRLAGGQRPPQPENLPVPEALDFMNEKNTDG

Variants of: B1
Conditions: with flij_salty fliJ

| Variant | effect of a mutation on the interaction |
| --- | --- |
| G368C | increasing interaction strength |

Variants of: B2
Conditions: with flhb_salty flhB

| Variant | effect of a mutation on the interaction |
| --- | --- |
| G368C | increasing interaction strength |
